Data: patent publication US20200164083A1

Biological target: capture reagent (antibody) of the exenatide ELISA kit (Peninsula Laboratories Inc., # S-1311)
Assay: ELISA (Peninsula Lab exenatide kit)

exenatide (peptide)
EC50: 0.2 nM
